T1: Human IL-11 (human, UniProt P20809 22-199)
T1 sequence: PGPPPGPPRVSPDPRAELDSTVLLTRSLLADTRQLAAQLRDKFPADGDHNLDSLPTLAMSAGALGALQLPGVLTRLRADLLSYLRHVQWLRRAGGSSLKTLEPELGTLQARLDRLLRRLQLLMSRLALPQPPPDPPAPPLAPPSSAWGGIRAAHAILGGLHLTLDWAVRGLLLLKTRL

T2: Mouse IL-11 (mouse, UniProt P47873 22-199, limits assumed)
T2 construct: also called murine IL-11; recombinant murine IL-11
T2 sequence (looked up): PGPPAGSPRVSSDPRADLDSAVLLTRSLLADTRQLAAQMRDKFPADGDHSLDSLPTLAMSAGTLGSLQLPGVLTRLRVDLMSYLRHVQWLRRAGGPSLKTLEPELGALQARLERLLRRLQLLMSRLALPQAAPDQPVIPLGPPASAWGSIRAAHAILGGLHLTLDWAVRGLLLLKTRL


Legend:
Human IL-11 [1] = molecular target: T1, Human IL-11; test: cell-based or functional assay
Human IL-11 [2] = molecular target: T1, Human IL-11; test: ELISA on coated recombinant human IL-11 (100 ng/well), scFv-Fc
Method: The light chain shuffled anti-IL-11 antibodies were analysed to determine the EC50 for binding to human IL-11 by ELISA according to standard methods. Briefly, wells of microtiter plates were coated with recombinant human IL-11 (100 ng/well), scFv-Fc comprising the VH and VL domains of the clones were added in a dilution series and antibody binding was detected using a polyclonal antibody detection system.

Human IL-11 [3] = molecular target: T1, Human IL-11; test: ELISA
Method: (§1) The soluble scFv were produced by recombinant expression in E. coli, and analysed for their ability to bind to human IL-11 and murine IL-11 by ELISA. Briefly, the respective antigen was coated to wells of an ELISA plate, the cell culture supernatant containing the respective scFv was added at a 1:2 dilution, and binding was detected.

Mouse IL-11 = molecular target: T2, Mouse IL-11; test: ELISA
Method: as §1

Human IL-11 [4] = molecular target: T1, Human IL-11; test: SPR (BIAcore T200) single cycle kinetics, human IL-11 on CM5 chip, 1:1 model
Description: HEK293 EBNDA cells were transfected with vectors encoding scFv corresponding to YU100-H01, 01A, 01G, 01I, 01L, 01Q, 01S, 01T, 01V, YU100-G08, 02A, 02G, 02I, 02L, 02Q, 02S, 02T or 02V.

MMP2 production, Experiment 1 (human atrial fibroblasts + TGFB1) (Human IL-11 [1]) [ng/mL]	MMP2 production, Experiment 2 (human atrial fibroblasts + TGFB1) (Human IL-11 [1]) [ng/mL]	EC50 (Human IL-11 [2]) [µg/mL]	hIL11 - average signal (Human IL-11 [3])	mIL11 - average signal (Mouse IL-11)	Kd (Human IL-11 [4]) [nM]	koff (Human IL-11 [4]) [s⁻¹]	kon (Human IL-11 [4]) [M⁻¹ s⁻¹]	Binder
54.1	48.2	0.024	0.173	0.309				YU100-E06 (antibody) QVQLVESGGGVVQPGRSLRLSCAASGFTFSSYGMHWVRQAPGKGLEWVAVISYDGSNKYYADSVKGRFTISRDNSKNTLYLQMNSLRAEDTAVYYCAKIGATDPLDYWGQGTLVTVSSGSASAPKLEEGEFSEARVQSALTQPASVSGFPEQSITISCTGTSSDVGGYDYVSWYQQHPGKAPKLMIYDVTNRPSGVSNRFSGSKSGNTASLTISGLQPEDEADYYCSSYTSNTTWVFGGGTKLTVLRQPKAAPSVTLFPPSS
					1980	0.0537	27200	02G (antibody, IgG1, V domains shown, C91G variant of the YU100-G08 VL) VH: QVQLVQSGGGVVQPGRSLRLSCAASGFTFSSYGMHWVRQAPGKGLEWVAVISYDGSNKYYADSVKGRFTISRDNSKNTLYLQMNSLRAEDTAVYYCAKIGATDPLDYWGQGTLVTVSS VL: QSALTQPRSVSGSPGQSVTLSCTGTSSDVGGYNYVSWYQHYPGKAPKLMIFDVNERSSGVPDRFSGSKSGNTASLTISGLQAEDEADYYCGSYAGRYTWMFGGGTKVTVLG
					2.89	0.00238	825000	02I (antibody, IgG1, V domains shown, C91I variant of the YU100-G08 VL) VH: QVQLVQSGGGVVQPGRSLRLSCAASGFTFSSYGMHWVRQAPGKGLEWVAVISYDGSNKYYADSVKGRFTISRDNSKNTLYLQMNSLRAEDTAVYYCAKIGATDPLDYWGQGTLVTVSS VL: QSALTQPRSVSGSPGQSVTLSCTGTSSDVGGYNYVSWYQHYPGKAPKLMIFDVNERSSGVPDRFSGSKSGNTASLTISGLQAEDEADYYCISYAGRYTWMFGGGTKVTVLG
55.3	40.6	0.021	0.209	0.423				YU100-B08 (antibody) EVQLVQSGGGVVQPGRSLRLSCAASGFTFSSYGMHWVRQAPGKGLEWVAVISYDGSNKYYADSVKGRFTISRDNSKNTLYLQMNSLRAEDTAVYYCAKIGATDPLDYWGQGTLVTVSSGSASAPKLEEGEFSEARVQSALTQPASVSGSPGQSITISCTGTSSDVGGYNYVSWYQQHPGKVPRLLIYDVSNRPSGVSTRFSGSKSGNTASLTISGLQGEDEAEYYCSSFTSSTTWVFGGGTKLTVL
49.6	42.2	0.022	0.268	0.346				YU100-D02 (antibody) QVRLVQSGGGVVQPGRSLRLSCAASGFTFSSYGMHWVRQAPGKGLEWVAVISYDGSNKYYADSVKGRFTISRDNSKNTLYLQMNSLRAEDTAVYYCAKIGATDPLDYWGQGTLVTVSSGSASAPKLEEGEFSEARVQSALTQPRSVSGSPGQSVTISCTGTSGDVGTYNYVSWYQQHPGKAPKLMIFDVSKRPSGVPDRFSGSKSGNTASLTISGLQAEDEADYYCNSYAGSYTWVFGGGTKLTVLGQPKAAPSVTLFPPSS
51.2	47.2	0.038	0.447	0.475				YU100-D11 (antibody) QVQLVQSGGGVVQPGRSLRLSCAASGFTFSSYGMHWVRQAPGKGLEWVAVISYDGSNKYYADSVKGRFTISRDNSKNTLYLQMNSLRAEDTAVYYCAKIGATDPLDYWGQGTLVTVSSGSASAPKLEEGEFSEARVQSALTQPRSVSGSPGQSVTISCTGTSSNVGGYNYVSWYQQHPGKAPKLMIYDVSKRPSGVPDRFSGSKSGNTASLTISGLQAEDEANYYCASYAGNYNWVFGGGTKLTVLGQPKAAPSVTLFPPSS
56.3	50.2	0.027	0.16	0.275				YU100-E05 (antibody) EVQLVQSGGGVVQPGRSLRLSCAASGFTFSSYGMHWVRQAPGKGLEWVAVISYDGSNKYYADSVKGRFTISRDNSKNTLYLQMNSLRAEDTAVYYCAKIGATDPLDYWGQGTLVTVSSGSASAPKLEEGEFSEARVQAVLTQPRSVSGSPGQSVTISCTGTSSDVGGYNYVSWYQQHPGKAPKLMIYDVSKRPSGVPDRFSGSKSGNTASLTISGLQAEDEADYYCCSYAGSYSWVFGGGTKLTVLGQPKAAPSVTLFPPSS
53.5	49.1	0.058	0.71	0.561				YU112-E07 (antibody) QVQLVQSGGGVVQPGRSLRLSCAASGFTFGSYGMHWVRQAPGKGLEWVAVISYDGSNKYYADSVKGRFTISRDNSKNTLYLQMNSLRAEDTAVYYCAKGSYYFDYWGQGTLVTVSSGSASAPKLEEGEFSEARVEIVMTQSPDSLAVSLGERATINCKSSQSVNSAYLAWYQHKPGQPPRLLIYGASRRVTGVPDRFSGSGSGTDFTLTISSLQPEDFATYYCQQSYSDPRWTFGQGTKVEIK
50	43.5	0.036	0.36	0.472				YU100-E04 (antibody) QVQLQQSGGGVVQPGRSLRLSCAASGFTFSSYGMHWVRQAPGKGLEWVAVISYDGSNKYYADSVKGRFTISRDNSKNTLYLQMNSLRAEDTAVYYCAKIGATDPLDYWGQGTLVTVSSGSASAPKLEEGEFSEARVQSALTQPRSVSGSPGQSVTISCTGTSSDVGGYNYVSWYQQHPGKTPKLMIYDVTKRPSGVPDHFSGSKSGNTASLTISGLQAEDEADYYCCSYAGSHIWVFGGGTKLTVLGQPKAAPSVTLFPPSS
59.3	51.8	0.03	0.207	0.238				YU100-E01 (antibody) QVQLQQSGGGVVQPGRSLRLSCAASGFTFSSYGMHWVRQAPGKGLEWVAVISYDGSNKYYADSVKGRFTISRDNSKNTLYLQMNSLRAEDTAVYYCAKIGATDPLDYWGQGTLVTVSSGSASAPKLEEGEFSEARVQSALTQPASVSGSPGQSITISCTGTSNDIGAYNYVSWYQQHPGKAPKLLIYDVNNRPSGVSDRFSGSKSGNTASLTISGLQAEDEADYYCCSYAGSYSWVFGGGTKLTVLGQPKANPTVTLFPPSS
53.3	48.8	0.042	0.223	0.284				YU100-D05 (antibody) QVQLQQSGGGVVQPGRSLRLSCAASGFTFSSYGMHWVRQAPGKGLEWVAVISYDGSNKYYADSVKGRFTISRDNSKNTLYLQMNSLRAEDTAVYYCAKIGATDPLDYWGQGTLVTVSSGSASAPKLEEGEFSEARVQSALTQPASVSGSPGQLITISCTGTNSDVGGYNYVSWYQQHPGKAPKLMIYDVSNRPSGVSNRFSGSKSGNTASLTISGLQAEDEADYYCCSYAGSYTWVFGGGTKLTVLGQPKAAPSVTLFPPSS
47.6	49.6	0.033	0.209	0.404				YU100-B06 (antibody) QVQLVESGGGVVQPGRSLRLSCAASGFTFSSYGMHWVRQAPGKGLEWVAVISYDGSNKYYADSVKSRFTISRDNSKNTLYLQMNSLRAEDTAVYYCAKIGATDPLDYWGQGTLVTVSSGSASAPKLEEGEFSEARVQSALTQPASVSGSPGQSITISCTGTSSDVGGYNYVSWYQQHPGKAPKLMIYDVSKRPSGVPDRFSGSKSGNTASLTISGLQAEDEADYYCNSYAGSYTWVFGGGTKLTVL
55.9	47.4	0.023	0.167	0.354				YU100-B07 (antibody) QVQLVESGGGVVQPGRSLRLSCAASGFTFSSYGMHWVRQAPGKGLEWVAVISYDGSNKYYADSVKGRFTISRDNSKNTLYLQMNSLRAEDTAVYYCAKIGATDPLDYWGQGTLVTVSSGSASAPKLEEGEFSEARVQSALTQPRSVSGSPGQSVTMSCTGTSRDVGGYNYVSWYQHHPGKAPKLMIYDVSKRPSGVPDRFSGSKSGNTASLTISELQAEDEADYYCCSYAGSYTWVFGGGTKLTVL
